Experimental findings from patent publication US20230002732A1 are described below.

B1: ZMYM5 (protein, UniProt Q9UJ78 1-669, looked up)
chain: MEKCSVGGLELTEQTPALLGNMAMATSLMDIGDSFGHPACPLVSRSRNSPVEDDDDDDDVVFIESIQPPSISAPAIADQRNFIFASSKNEKPQGNYSVIPPSSRDLASQKGNISETIVIDDEEDIETNGGAEKKSSCFIEWGLPGTKNKTNDLDFSTSSLSRSKTKTGVRPFNPGRMNVAGDLFQNGEFATHHSPDSWISQSASFPSNQKQPGVDSLSPVALLRKQNFQPTAQQQLTKPAKITCANCKKPLQKGQTAYQRKGSAHLFCSTTCLSSFSHKRTQNTRSIICKKDASTKKANVILPVESSKSFQEFYSTSCLSPCENNWNLKKGVFNKSRCTICSKLAEIRHEVSVNNVTHKLCSNHCFNKYRLANGLIMNCCEHCGEYMPSKSTGNNILVIGGQQKRFCCQSCINEYKQMMETKSKKLTASENRKRNAFREENEKQLYGSSNTLLKKIEGIPEKKEKTSQLQLSVECGTDTLLIQENVNLPPSSTSTIADTFQEQLEEKNFEDSIVPVVLSADPGTWPRILNIKQRDTLVENVPPQVRNFNFPKDNTGRKFSETYYTRILPNGEKTTRSWLLYSTSKDSVFCLYCKLFGEGKNQLKNENGCKDWQHLSHILSKHEESEMHVNNSVKYSKLKSDLKKNKAIDAAEHRLYENEKNDGVLLLYT
B2: ZNF198 (protein, UniProt Q9UBW7 1-1377, looked up)
chain: MDTSSVGGLELTDQTPVLLGSTAMATSLTNVGNSFSGPANPLVSRSNKFQNSSVEDDDDVVFIEPVQPPPPSVPVVADQRTITFTSSKNEELQGNDSKITPSSKELASQKGSVSETIVIDDEEDMETNQGQEKNSSNFIERRPPETKNRTNDVDFSTSSFSRSKVNAGMGNSGITTEPDSEIQIANVTTLETGVSSVNDGQLENTDGRDMNLMITHVTSLQNTNLGDVSNGLQSSNFGVNIQTYTPSLTSQTKTGVGPFNPGRMNVAGDVFQNGESATHHNPDSWISQSASFPRNQKQPGVDSLSPVASLPKQIFQPSVQQQPTKPVKVTCANCKKPLQKGQTAYQRKGSAHLFCSTTCLSSFSHKPAPKKLCVMCKKDITTMKGTIVAQVDSSESFQEFCSTSCLSLYEDKQNPTKGALNKSRCTICGKLTEIRHEVSFKNMTHKLCSDHCFNRYRMANGLIMNCCEQCGEYLPSKGAGNNVLVIDGQQKRFCCQSCVSEYKQVGSHPSFLKEVRDHMQDSFLMQPEKYGKLTTCTGCRTQCRFFDMTQCIGPNGYMEPYCSTACMNSHKTKYAKSQSLGIICHFCKRNSLPQYQATMPDGKLYNFCNSSCVAKFQALSMQSSPNGQFVAPSDIQLKCNYCKNSFCSKPEILEWENKVHQFCSKTCSDDYKKLHCIVTYCEYCQEEKTLHETVNFSGVKRPFCSEGCKLLYKQDFARRLGLRCVTCNYCSQLCKKGATKELDGVVRDFCSEDCCKKFQDWYYKAARCDCCKSQGTLKERVQWRGEMKHFCDQHCLLRFYCQQNEPNMTTQKGPENLHYDQGCQTSRTKMTGSAPPPSPTPNKEMKNKAVLCKPLTMTKATYCKPHMQTKSCQTDDTWRTEYVPVPIPVPVYIPVPMHMYSQNIPVPTTVPVPVPVPVFLPAPLDSSEKIPAAIEELKSKVSSDALDTELLTMTDMMSEDEGKTETTNINSVIIETDIIGSDLLKNSDPETQSSMPDVPYEPDLDIEIDFPRAAEELDMENEFLLPPVFGEEYEEQPRPRSKKKGAKRKAVSGYQSHDDSSDNSECSFPFKYTYGVNAWKHWVKTRQLDEDLLVLDELKSSKSVKLKEDLLSHTTAELNYGLAHFVNEIRRPNGENYAPDSIYYLCLGIQEYLCGSNRKDNIFIDPGYQTFEQELNKILRSWQPSILPDGSIFSRVEEDYLWRIKQLGSHSPVALLNTLFYFNTKYFGLKTVEQHLRLSFGTVFRHWKKNPLTMENKACLRYQVSSLCGTDNEDKITTGKRKHEDDEPVFEQIENTANPSRCPVKMFECYLSKSPQNLNQRMDVFYLQPECSSSTDSPVWYTSTSLDRNTLENMLVRVLLVKDIYDKDNYELDEDTD
B3: C18orf25 (protein, UniProt Q96B23 1-404, looked up)
chain: MKMEEAVGKVEELIESEAPPKASEQETAKEEDGSVELESQVQKDGVADSTVISSMPCLLMELRRDSSESQLASTESDKPTTGRVYESDSSNHCMLSPSSSGHLADSDTLSSAEENEPSQAETAVEGDPSGVSGATVGRKSRRSRSESETSTMAAKKNRQSSDKQNGRVAKVKGHRSQKHKERIRLLRQKREAAARKKYNLLQDSSTSDSDLTCDSSTSSSDDDEEVSGSSKTITAEIPDGPPVVAHYDMSDTNSDPEVVNVDNLLAAAVVQEHSNSVGGQDTGATWRTSGLLEELNAEAGHLDPGFLASDKTSAGNAPLNEEINIASSDSEVEIVGVQEHARCVHPRGGVIQSVSSWKHGSGTQYVSTRQTQSWTAVTPQQTWASPAEVVDLTLDEDSRRKYLL
B4: RNF111 (enzyme, UniProt Q6ZNA4 1-994, looked up)
chain: MSQWTPEYNELYTLKVDMKSEIPSDAPKTQESLKGILLHPEPIGAAKSFPAGVEMINSKVGNEFSHLCDDSQKQEKEMNGNQQEQEKSLVVRKKRKSQQAGPSYVQNCVKENQGILGLRQHLGTPSDEDNDSSFSDCLSSPSSSLHFGDSDTVTSDEDKEVSVRHSQTILNAKSRSHSARSHKWPRTETESVSGLLMKRPCLHGSSLRRLPCRKRFVKNNSSQRTQKQKERILMQRKKREVLARRKYALLPSSSSSSENDLSSESSSSSSTEGEEDLFVSASENHQNNPAVPSGSIDEDVVVIEASSTPQVTANEEINVTSTDSEVEIVTVGESYRSRSTLGHSRSHWSQGSSSHASRPQEPRNRSRISTVIQPLRQNAAEVVDLTVDEDEPTVVPTTSARMESQATSASINNSNPSTSEQASDTASAVTSSQPSTVSETSATLTSNSTTGTSIGDDSRRTTSSAVTETGPPAMPRLPSCCPQHSPCGGSSQNHHALGHPHTSCFQQHGHHFQHHHHHHHTPHPAVPVSPSFSDPACPVERPPQVQAPCGANSSSGTSYHEQQALPVDLSNSGIRSHGSGSFHGASAFDPCCPVSSSRAAIFGHQAAAAAPSQPLSSIDGYGSSMVAQPQPQPPPQPSLSSCRHYMPPPYASLTRPLHHQASACPHSHGNPPPQTQPPPQVDYVIPHPVHAFHSQISSHATSHPVAPPPPTHLASTAAPIPQHLPPTHQPISHHIPATAPPAQRLHPHEVMQRMEVQRRRMMQHPTRAHERPPPHPHRMHPNYGHGHHIHVPQTMSSHPRQAPERSAWELGIEAGVTAATYTPGALHPHLAHYHAPPRLHHLQLGALPLMVPDMAGYPHIRYISSGLDGTSFRGPFRGNFEELIHLEERLGNVNRGASQGTIERCTYPHKYKKVTTDWFSQRKLHCKQDGEEGTEEDTEEKCTICLSILEEGEDVRRLPCMHLFHQVCVDQWLITNKKCPICRVDIEAQLPSES
B5: ZBTB16 (protein, UniProt Q05516 1-673, looked up)
chain: MDLTKMGMIQLQNPSHPTGLLCKANQMRLAGTLCDVVIMVDSQEFHAHRTVLACTSKMFEILFHRNSQHYTLDFLSPKTFQQILEYAYTATLQAKAEDLDDLLYAAEILEIEYLEEQCLKMLETIQASDDNDTEATMADGGAEEEEDRKARYLKNIFISKHSSEESGYASVAGQSLPGPMVDQSPSVSTSFGLSAMSPTKAAVDSLMTIGQSLLQGTLQPPAGPEEPTLAGGGRHPGVAEVKTEMMQVDEVPSQDSPGAAESSISGGMGDKVEERGKEGPGTPTRSSVITSARELHYGREESAEQVPPPAEAGQAPTGRPEHPAPPPEKHLGIYSVLPNHKADAVLSMPSSVTSGLHVQPALAVSMDFSTYGGLLPQGFIQRELFSKLGELAVGMKSESRTIGEQCSVCGVELPDNEAVEQHRKLHSGMKTYGCELCGKRFLDSLRLRMHLLAHSAGAKAFVCDQCGAQFSKEDALETHRQTHTGTDMAVFCLLCGKRFQAQSALQQHMEVHAGVRSYICSECNRTFPSHTALKRHLRSHTGDHPYECEFCGSCFRDESTLKSHKRIHTGEKPYECNGCGKKFSLKHQLETHYRVHTGEKPFECKLCHQRSRDYSAMIKHLRTHNGASPYQCTICTEYCPSLSSMQKHMKGHKPEEIPPDWRIEKTYLYLCYV
B6: PIAS3 (enzyme, UniProt Q9Y6X2 1-628, looked up)
chain: MAELGELKHMVMSFRVSELQVLLGFAGRNKSGRKHELLAKALHLLKSSCAPSVQMKIKELYRRRFPRKTLGPSDLSLLSLPPGTSPVGSPGPLAPIPPTLLAPGTLLGPKREVDMHPPLPQPVHPDVTMKPLPFYEVYGELIRPTTLASTSSQRFEEAHFTFALTPQQVQQILTSREVLPGAKCDYTIQVQLRFCLCETSCPQEDYFPPNLFVKVNGKLCPLPGYLPPTKNGAEPKRPSRPINITPLARLSATVPNTIVVNWSSEFGRNYSLSVYLVRQLTAGTLLQKLRAKGIRNPDHSRALIKEKLTADPDSEVATTSLRVSLMCPLGKMRLTVPCRALTCAHLQSFDAALYLQMNEKKPTWTCPVCDKKAPYESLIIDGLFMEILSSCSDCDEIQFMEDGSWCPMKPKKEASEVCPPPGYGLDGLQYSPVQGGDPSENKKKVEVIDLTIESSSDEEDLPPTKKHCSVTSAAIPALPGSKGVLTSGHQPSSVLRSPAMGTLGGDFLSSLPLHEYPPAFPLGADIQGLDLFSFLQTESQHYGPSVITSLDEQDALGHFFQYRGTPSHFLGPLAPTLGSSHCSATPAPPPGRVSSIVAPGGALREGHGGPLPSGPSLTGCRSDIISLD

In the first data set the target is E4bp4. Description: yeast-two-hybrid screen, E4bp4 as bait.
Details: not given
CHD1 (from UniProt O14646 1-1710) returned a Positive clones of 1 clones. DSP (from UniProt P15924 1-2871) displayed a Positive clones of 2 clones.

FLJ13057: the Positive clones was found to be 5 clones. Take FLJ544447: the Positive clones was determined as 1 clones. Regarding FLNA (from UniProt P21333 2-2647), the Positive clones came out at 1 clones. In turn, “HIPK1 (from UniProt Q86Z02 1-1210) (enzyme)” gave a Positive clones of 1 clones. Take “HIPK3 (from UniProt Q9H422 1-1215) (enzyme)”: the Positive clones is 5 clones. Still for that read-out and setting: with PIAS1 (from UniProt O75925 2-651) the figure was 20 clones; with “RANBP2 (from UniProt P49792 1-3224) (enzyme)”, 1 clones. The molecule “SETX (from UniProt Q7Z333 1-2677) (enzyme)” displayed a Positive clones of 2 clones. Molecule SNRP70 (from UniProt P08621 2-437) displayed a Positive clones of 2 clones. The same measure, in the same setting: then “SORL1 (from UniProt Q92673 82-2214) (receptor)”, with 1 clones; and “TLK2 (from UniProt Q86UE8 1-772) (enzyme)”, with 2 clones; and “U5-200KD (from UniProt O75643 1-2136) (enzyme)”, with 1 clones. In the case of ZNF237, the Positive clones was found to be 5 clones.

In the case of B1, the Positive clones was found to be 5 clones. B2 came in with a Positive clones of 5 clones. Molecule B3 showed a Positive clones of 1 clones.

Take B4: the Positive clones was found to be 1 clones. Still for that read-out and setting: with B5 the figure was 1 clones. The same measure, in the same setting: with B6 the figure was 2 clones.

In another data set the test system is E4bp4 (NFIL3), wild type. Put plainly: cell_activity. The conditions noted are these: 3T3 cells, 48 h; transcriptional repression.
“pGL3-E4bp4-CS reporter with three E4bp4 consensus binding sites” returned an activity (% decrease in luciferase) of 50.
